From patent US20030059827A1 (published 2003)

Biological target: T1, GFP (non-modified EGFP) (UniProt P42212 1-238 = GFP)
T1 construct: also called GFP alone; original GFP
Experiment: affinity chromatography on Ni-NTA-bound PDZ, Western blot with anti-GFP
Excerpt: To carry out the affinity chromatography assay, bacterially-expressed PDZ domains and EGFP derivatives were produced and fused to the different target peptides. The original and modified PDZ domains were expressed in E. coli XL1-Blue as fusions with 6XHis. The EGFP-peptides fusions were expressed in E. coli BL21 as described in Sambrook et al, 1989, Molecular Cloning: A Laboratory Manual, 2nd Ed., Vol 3. The bacterially expressed PDZ domains were then bound to nickel resin (Ni-NTA agarose, Quiagen) as described by the manufacturer. The resin-bound PDZ domains were then incubated with E.coli extracts made from bacteria expressing each of the target peptide-GFP fusions and washed four times with 50 mM NaH₂PO₄, 300 mM NaCl; 20 mM Imidazole; 0,1% of TritonX-100 to remove any unbound proteins. The bound proteins were eluted using 50 mM NaH₂PO₄, 300 mM NaCl; 200 mM Imidazole and analyzed by Western blot using antibodies against GFP to determine the presence of EGFP fused to the target peptide.

B1: PDZ-3, third PDZ domain of mouse PSD-95 (amino acids 302-402) fused to polyhistidine (6XHis), from plasmid pQEPDZ-3 (other)
chain: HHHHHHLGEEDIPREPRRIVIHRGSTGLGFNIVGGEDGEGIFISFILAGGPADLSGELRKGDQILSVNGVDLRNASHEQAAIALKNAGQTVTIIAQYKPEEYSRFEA
notes: range 302-402; also called original PDZ domain; the original PDZ
binding result: no binding
